From the supplement of paper PMC7877785
± gives the uncertainty stated by the source.

Assay: self-splicing fitness, log relative to wild type (ln ratio); higher = more splicing; Tetrahymena group I intron in knt gene, E. coli kanamycin selection, DiMSum; sequences stand for … in CUCUCU…GGAGGGAAAAGUUAUCAGGCAUGCACCUGGUAGCUAGUCUUUAAACCAAUAGAUUGCAUCGGUUUAAAAGGCAAGACCGUCAAAUUGCGGGAAAGGGGUCAACAGCCGUUCAGUACCAAGUCUCAGGGGAAACUUUGAGAUGGCCUUGCAAAGGGUAUGGUAAUAAGCUGACGGACAUGGUCCUAACCACGCAGCCAAGUCCUAAGUCAACAGAUCUUCUGUUGAUAUGGAUGCAGUUCACAGACUAAAUGUCGGUCGGGGAAGAUGUAUUCUUCUCAUAAGAUAUAGUCGGACCUCUCCUUAAUGGGAGCUAGCGGAUGAAGUGAUGCAACACUGGAGCCGCUGGGAACUAAUUUGUAUGCGAAAGUAUAUUGAUUAGUUUUGGAGUACUCGUGGUCG
In short: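 Colonies from six replicate transformations of E. coli BL21(DE3) were pooled and amplicon-sequenced on an Illumina HiSeq 2500. The library placed an intron with all eight P1ex-region nucleotides randomised inside the knt kanamycin-resistance gene on pET-22b(+), and cells grew overnight at 37°C or 30°C on LB agar with or without 25 μg/mL kanamycin (plus 100 μg/mL carbenicillin, 50 μM IPTG, 0.2% rhamnose). Fitness is the DiMSum error-weighted combination of wild-type-normalised replicate fold changes, kanamycin versus none.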

| Sequence | self-splicing fitness (ln) (30 °C) | self-splicing fitness (ln) (37 °C) |
| --- | --- | --- |
| AGGAAGCAAUAUUACGUGCG | -1.01 ± 0.1 | -1.04 ± 0.13 |
| AGGAAGCAAUAUUACGUUAG | -2.95 ± 0.21 | -3.24 ± 0.29 |
| AGGAAGCAAUAUUACGUUGU | -3.98 ± 0.18 | -2.82 ± 0.15 |
| AGGCAGCAAUAUUACGACAC | -1.75 ± 0.18 | -0.221 ± 0.18 |
| AGGCAGCAAUAUUACGAGAA | -3.3 ± 0.41 | -2.09 ± 0.36 |
| AGGCAGCAAUAUUACGAUGU | -2.41 ± 0.094 | -0.487 ± 0.1 |
| AGGCAGCAAUAUUACGCAAC | -0.42 ± 0.21 | -1.41 ± 0.34 |
| AGGCAGCAAUAUUACGCACC | -0.268 ± 0.1 | -0.0601 ± 0.15 |
| AGGCAGCAAUAUUACGCACG | -0.754 ± 0.069 | -0.342 ± 0.11 |
| AGGCAGCAAUAUUACGCAGU | -3.36 ± 0.2 | -1.55 ± 0.19 |
| AGGCAGCAAUAUUACGCCAU | -2.27 ± 0.25 | -1.39 ± 0.3 |
| AGGCAGCAAUAUUACGCUAG | -3.53 ± 0.25 | -3.04 ± 0.27 |
| AGGCAGCAAUAUUACGCUCG | -1.75 ± 0.091 | -0.442 ± 0.12 |
| AGGCAGCAAUAUUACGGAUG | -2.3 ± 0.1 | -2.58 ± 0.21 |
| AGGCAGCAAUAUUACGGGCG | -0.287 ± 0.097 | -0.172 ± 0.11 |
| AGGCAGCAAUAUUACGGGCU | -0.928 ± 0.071 | -1.51 ± 0.11 |
| AGGCAGCAAUAUUACGGGUG | -3.64 ± 0.15 | -2.29 ± 0.12 |
| AGGCAGCAAUAUUACGGUUG | -3.28 ± 0.18 | -1.46 ± 0.17 |
| AGGCAGCAAUAUUACGGUUU | -0.696 ± 0.043 | -0.371 ± 0.062 |
| AGGCAGCAAUAUUACGUACG | -1.22 ± 0.074 | 0.303 ± 0.1 |
| AGGCAGCAAUAUUACGUUGG | -3.79 ± 0.2 | -1.45 ± 0.11 |
| AGGCAGCAAUAUUACGUUUA | -1.33 ± 0.072 | -0.496 ± 0.08 |
| AGGGAGCAAUAUUACGAAUG | -3.27 ± 0.3 | -2.38 ± 0.39 |
| AGGGAGCAAUAUUACGACCG | -1.92 ± 0.35 | -0.586 ± 0.33 |
| AGGGAGCAAUAUUACGACGU | -2.14 ± 0.23 | -1.63 ± 0.19 |

| Sequence | self-splicing fitness (ln) (30 °C) | self-splicing fitness (ln) (37 °C) |
| --- | --- | --- |
| AGGGAGCAAUAUUACGAUAU | – | -1.88 ± 0.47 |
| AGGGAGCAAUAUUACGAUCA | – | -1.5 ± 0.4 |
| AGGGAGCAAUAUUACGCAGA | – | -3.27 ± 0.43 |
| AGGGAGCAAUAUUACGCGAG | -3.35 ± 0.19 | -2.47 ± 0.19 |
| AGGGAGCAAUAUUACGCGUA | -3.21 ± 0.31 | -3.16 ± 0.23 |
| AGGGAGCAAUAUUACGCUUA | -3.44 ± 0.24 | -1.62 ± 0.21 |
| AGGGAGCAAUAUUACGGAAA | -2.4 ± 0.34 | -2.34 ± 0.42 |
| AGGGAGCAAUAUUACGGACU | -1.03 ± 0.16 | 0.483 ± 0.22 |
| AGGGAGCAAUAUUACGGGUG | -4.12 ± 0.2 | -2.54 ± 0.29 |
| AGGGAGCAAUAUUACGGUGU | -4.33 ± 0.22 | -2.37 ± 0.18 |
| AGGGAGCAAUAUUACGUAAC | -2.23 ± 0.28 | -2.99 ± 0.29 |
| AGGGAGCAAUAUUACGUCUA | -2.54 ± 0.21 | -2.26 ± 0.21 |
| AGGGAGCAAUAUUACGUGAC | -2.06 ± 0.3 | -1.15 ± 0.39 |
| AGGUAGCAAUAUUACGACAA | -0.614 ± 0.018 | -0.295 ± 0.035 |
| AGGUAGCAAUAUUACGAGGC | -3.696 ± 0.036 | -2.87 ± 0.047 |
| AGGUAGCAAUAUUACGAGUU | -2.033 ± 0.015 | -0.955 ± 0.033 |
| AGGUAGCAAUAUUACGAUGU | -0.919 ± 0.013 | -0.474 ± 0.033 |
| AGGUAGCAAUAUUACGAUUA | -0.677 ± 0.016 | -0.383 ± 0.033 |
| AGGUAGCAAUAUUACGCAUG | -2.022 ± 0.017 | -1.22 ± 0.034 |
| AGGUAGCAAUAUUACGCAUU | -1.862 ± 0.015 | -0.988 ± 0.034 |
| AGGUAGCAAUAUUACGCCCG | -0.077 ± 0.022 | -0.122 ± 0.04 |
| AGGUAGCAAUAUUACGCCGU | -1.24 ± 0.019 | -0.852 ± 0.035 |
| AGGUAGCAAUAUUACGCCUA | -0.599 ± 0.019 | -0.197 ± 0.035 |
| AGGUAGCAAUAUUACGCGGU | -3.312 ± 0.024 | -2.14 ± 0.037 |
| AGGUAGCAAUAUUACGGAUG | -3.698 ± 0.028 | -2.39 ± 0.037 |

| Sequence | self-splicing fitness (ln) (30 °C) | self-splicing fitness (ln) (37 °C) |
| --- | --- | --- |
| AGGUAGCAAUAUUACGUAGC | -2.916 ± 0.021 | -1.94 ± 0.036 |
| AGGUAGCAAUAUUACGUGCC | -1.99 ± 0.022 | -1.22 ± 0.037 |
| AGGUAGCAAUAUUACGUGCU | -0.841 ± 0.014 | -0.391 ± 0.033 |
| AGGUAGCAAUAUUACGUGGA | -3.365 ± 0.027 | -2.61 ± 0.037 |
| AGGUAGCAAUAUUACGUUCA | -0.556 ± 0.014 | -0.256 ± 0.033 |
| AGGUAGCAAUAUUACGUUGC | -3.874 ± 0.031 | -3.06 ± 0.047 |
| AGUAAGCAAUAUUACGAAAA | -2.29 ± 0.38 | -1.89 ± 0.33 |
| AGUAAGCAAUAUUACGAACA | -0.711 ± 0.13 | -0.282 ± 0.14 |
| AGUAAGCAAUAUUACGAUAA | -2.23 ± 0.32 | -1.4 ± 0.19 |
| AGUAAGCAAUAUUACGAUAC | -3.12 ± 0.28 | -2.48 ± 0.38 |
| AGUAAGCAAUAUUACGAUCC | -0.71 ± 0.097 | 0.236 ± 0.15 |
| AGUAAGCAAUAUUACGCCUC | – | -1.7 ± 0.38 |
| AGUAAGCAAUAUUACGCGCC | -0.457 ± 0.22 | 0.671 ± 0.29 |
| AGUAAGCAAUAUUACGGAGA | -3.47 ± 0.32 | -2.44 ± 0.42 |
| AGUAAGCAAUAUUACGGCCC | -0.317 ± 0.14 | -0.0183 ± 0.22 |
| AGUAAGCAAUAUUACGGCUC | -2.15 ± 0.2 | -1.79 ± 0.27 |
| AGUAAGCAAUAUUACGGGUC | -3.31 ± 0.42 | -2.92 ± 0.31 |
| AGUAAGCAAUAUUACGGGUG | -3.13 ± 0.18 | -0.695 ± 0.11 |
| AGUAAGCAAUAUUACGGUGA | -2.73 ± 0.17 | -1.21 ± 0.14 |
| AGUAAGCAAUAUUACGUAAG | -1.35 ± 0.13 | -1.96 ± 0.23 |
| AGUAAGCAAUAUUACGUCCG | -2.03 ± 0.17 | -0.809 ± 0.21 |
| AGUAAGCAAUAUUACGUCGC | – | -1.65 ± 0.31 |
| AGUAAGCAAUAUUACGUGCC | -0.0863 ± 0.11 | -0.612 ± 0.16 |
| AGUAAGCAAUAUUACGUGUG | -4.26 ± 0.18 | -2.32 ± 0.12 |
| AGUAAGCAAUAUUACGUUCA | -1.29 ± 0.095 | -0.266 ± 0.12 |

| Sequence | self-splicing fitness (ln) (30 °C) | self-splicing fitness (ln) (37 °C) |
| --- | --- | --- |
| AGUAAGCAAUAUUACGUUCU | -0.729 ± 0.085 | -1.21 ± 0.11 |
| AGUCAGCAAUAUUACGAUCC | 0.284 ± 0.16 | 0.198 ± 0.23 |
| AGUCAGCAAUAUUACGAUGU | 0.202 ± 0.062 | 0.34 ± 0.087 |
| AGUCAGCAAUAUUACGCAGA | -1.64 ± 0.2 | -1.45 ± 0.22 |
| AGUCAGCAAUAUUACGCCCC | 0.28 ± 0.17 | 0.672 ± 0.33 |
| AGUCAGCAAUAUUACGCCCU | -1.1 ± 0.24 | -0.315 ± 0.3 |
| AGUCAGCAAUAUUACGCUCA | -0.675 ± 0.095 | -0.791 ± 0.12 |
| AGUCAGCAAUAUUACGCUGU | -4.12 ± 0.34 | -2.73 ± 0.22 |
| AGUCAGCAAUAUUACGGACA | 0.233 ± 0.078 | 0.157 ± 0.087 |
| AGUCAGCAAUAUUACGGAGA | – | -1.53 ± 0.38 |
| AGUCAGCAAUAUUACGGAUA | -0.982 ± 0.1 | -0.318 ± 0.098 |
| AGUCAGCAAUAUUACGGCCC | -0.436 ± 0.12 | -0.0813 ± 0.18 |
| AGUCAGCAAUAUUACGGGAA | -2.12 ± 0.17 | -2.4 ± 0.22 |
| AGUCAGCAAUAUUACGGGAU | -1.04 ± 0.079 | -1.51 ± 0.15 |
| AGUCAGCAAUAUUACGGUAU | -0.592 ± 0.05 | -0.99 ± 0.063 |
| AGUCAGCAAUAUUACGUAUC | -1.19 ± 0.076 | -0.186 ± 0.11 |
| AGUCAGCAAUAUUACGUCAG | -2.65 ± 0.16 | -1.86 ± 0.15 |
| AGUCAGCAAUAUUACGUCUC | -4.29 ± 0.31 | -2.01 ± 0.15 |
| AGUCAGCAAUAUUACGUGAG | -0.691 ± 0.054 | -0.0397 ± 0.086 |
| AGUCAGCAAUAUUACGUGCU | -2.18 ± 0.12 | -1.43 ± 0.12 |
| AGUCAGCAAUAUUACGUGGU | -1.26 ± 0.11 | -2.37 ± 0.19 |
| AGUCAGCAAUAUUACGUUGA | – | -3.49 ± 0.31 |
